Biological target: HA-tagged p26 (long-distance movement protein p26 of Pea enation mosaic virus 2) (Pea enation mosaic virus 2)
Assay: SDS-PAGE and Western blot; lysates of agroinfiltrated N. benthamiana leaves (10x PBS, 2% beta-mercaptoethanol), 10% SDS-PAGE, blot with anti-HA antibody; co-infiltrated with p14, GFP-3'UTR(PEMV) and U1D

HA-tagged p26 (long-distance movement protein p26 of Pea enation mosaic virus 2) (natural protein)
stoichiometry N: 2

From paper PMC7064760
